Data: patent publication US20190233475A1 (Bicycle, published 2019)
*1 amine or outer side, *2 acyl side, *3 side chain or, on linkers, in order; H or OH if unused. Bridges are numbered along the chain shown (N, C = ends). Where no end group is shown, it is not given here. [ ]: non-standard residue; d: D form. TBMB = c1c(C[*:1])cc(C[*:3])cc1C[*:2]; NMeR = CN[C@@H](CCCNC(=N)N)C(=O)O; hArg = N=C(N)NCCCC[C@H](N)C(=O)O; Aze = O=C(O)[C@@H]1CCN1

B1: Ac-(06-259-02) (peptide)
peptide: Ac-CNTWNPWCPWDAPLC-NH2
modifications: linker 1-8-15 via TBMB
notes: Synthetic bicyclic peptide without the terminal alanines, made on Rink amide resin
B2: Ac-(06-550) HArg5 (peptide)
peptide: Ac-CSFPY[hArg]CVYYPDIC-NH2
modifications: linker 1-7-14 via TBMB
notes: Synthetic bicyclic peptide, 5 x 6, made on Rink amide resin
B3: Ac-(06-550) Aze3 HArg5 (peptide)
peptide: Ac-CSF[Aze]Y[hArg]CVYYPDIC-NH2
modifications: linker 1-7-14 via TBMB
notes: as for B2
B4: Ac-(06-550) NMe-Arg5 (peptide)
peptide: Ac-CSFPY[NMeR]CVYYPDIC-NH2
modifications: linker 1-7-14 via TBMB
notes: as for B2
B5: Ac-(06-550) Aze3 NMe-Arg5 (peptide)
peptide: Ac-CSF[Aze]Y[NMeR]CVYYPDIC-NH2
modifications: linker 1-7-14 via TBMB
notes: as for B2

Each binder was assayed against T1, human plasma kallikrein (human, UniProt P03952 20-638) (assay: enzyme inhibition assay, fluorogenic substrate Z-PheArg-AMC).
T1 construct: Enzyme used in the Ki assays; also called human kallikrein; PK
T1 sequence (P03952 20-638 limits assumed): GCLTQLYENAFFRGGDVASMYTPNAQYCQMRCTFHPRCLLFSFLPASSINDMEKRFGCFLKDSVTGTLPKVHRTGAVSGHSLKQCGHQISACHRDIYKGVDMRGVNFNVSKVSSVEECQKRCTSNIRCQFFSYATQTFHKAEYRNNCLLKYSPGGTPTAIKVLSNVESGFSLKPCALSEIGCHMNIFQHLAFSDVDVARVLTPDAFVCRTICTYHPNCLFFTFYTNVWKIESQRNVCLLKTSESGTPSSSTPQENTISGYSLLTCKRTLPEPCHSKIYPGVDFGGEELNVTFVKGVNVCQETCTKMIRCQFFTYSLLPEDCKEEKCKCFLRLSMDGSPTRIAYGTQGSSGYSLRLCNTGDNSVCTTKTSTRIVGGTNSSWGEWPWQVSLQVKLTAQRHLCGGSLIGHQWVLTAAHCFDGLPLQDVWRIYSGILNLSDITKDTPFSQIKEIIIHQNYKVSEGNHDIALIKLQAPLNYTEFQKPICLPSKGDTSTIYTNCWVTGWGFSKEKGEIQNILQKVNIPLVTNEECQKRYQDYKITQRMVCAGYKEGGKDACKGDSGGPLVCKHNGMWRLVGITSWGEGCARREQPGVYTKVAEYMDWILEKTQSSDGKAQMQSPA
Description: (§1) Functional enzyme assays were conducted in 10 mM Tris HCl, 150 mM NaCl, 10 mM MgCl₂, 1 mM CaCl₂ and 1 mg/mL BSA (all Sigma UK) pH 7.4 at 25° C. in solid black 96 or 384 well plates. […] Release of AMC was measured using a Pherastar FS (BMG Labtech), excitation 360 nm, emission 460 nm. The rate of the linear phase of the reaction, typically 5 to 45 minutes, was calculated in MARS data analysis software (BMG labtech). The rate was then used to calculate the IC₅₀ and Kᵢ in Prism (GraphPad). A four parameter inhibition non-linear regression equation was used to calculate the IC₅₀. The One site-fit Kᵢ equation used to calculate the Kᵢ, constraining the Kᵢ to the Kₘ for the substrate which is 150 μM for the human enzyme, and 200 μM for the rat orthologue. All Kᵢ/IC₅₀ values are the mean of at least two independent experiments, and at least three for peptides with Kᵢ values lower than 1 nM. For rabbit kallikrein, between 7 to 14 pM enzyme was employed, with 33 μM substrate with a Kₘ of 50 μM.
Work on B1 yielded a Ki of 5.9 nM.
Binder B2 has a Ki of 1.8 nM.
B3 gave a Ki of 0.5 nM.
With B4 the Ki was 2.66 nM.
B5 gave a Ki of 53 nM.

Each binder was assayed against T2, rat plasma kallikrein (rat, UniProt P14272 391-638) in the same assay as above.
T2 construct: domain: catalytic domain; Expressed and purified in house; also called rat kallikrein; rPK
T2 sequence (P14272 391-638 limits assumed): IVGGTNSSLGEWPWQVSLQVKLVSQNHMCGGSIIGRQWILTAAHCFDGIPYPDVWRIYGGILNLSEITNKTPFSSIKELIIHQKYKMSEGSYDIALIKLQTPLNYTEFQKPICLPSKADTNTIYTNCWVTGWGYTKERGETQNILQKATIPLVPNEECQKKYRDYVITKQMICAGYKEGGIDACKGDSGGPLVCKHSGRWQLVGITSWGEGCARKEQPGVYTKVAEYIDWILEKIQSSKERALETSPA
Description: as §1
In the case of B1, the Ki is reported as 3.8 nM.
B2 gave a Ki of 25 nM.
B3 was tested, and the Ki was 5.6 nM.

These binders were tested against T3, biotinylated human plasma kallikrein (human, UniProt P03952 20-638, biotinylated (sites not given)) (assay: homogeneous plate-based binding assay, TBMB-cyclised phage on biotinylated human plasma kallikrein).
T3 construct: mature; also called biotinylated hPK; biotinylated human kallikrein
T3 sequence (P03952 20-638 limits assumed): as the sequence (P03952 20-638 limits assumed) above
Description: Assay of binding of individual clones: Library transformant colonies, or selection output colonies, were picked and grown as individual cultures in 2TY broth containing selective antibiotic. The picked colonies were DNA-sequenced using a QIAgen PyroMark Q96 DNA sequencer to reveal the amino-acid substitution present in each clone, and were assayed for human plasma kallikrein binding as follows. The phage-containing supernatant was harvested from the culture and phage were cyclised with tris-bromomethylbenzene (TBMB) based on the methods of Heinis et al (Nature Chemical Biology vol. 5 pp 502-507 (2009)). The purified phage from this process were assayed for binding to biotinylated human plasma kallikrein using a homogeneous plate-based binding assay; assay read-out measured on a BMG Labtech Pherastar FS plate reader. The quantitative binding data from duplicate assay samples was averaged (mean) and expressed as signal:background. Assay data shown is representative of at least 2 independent experiments. The assay data was correlated with the peptide sequences.
CKNYWNPCDLVTISC (linker 1-8-15 via TBMB, also called 06-254 (phage clone)) [06-254 parent] was tested, and the “S:B (signal:background)” value was 23.5.
With CKNYWNPCDLIETTC (linker 1-8-15 via TBMB) [06-254-01 (phage clone)] the “S:B (signal:background)” value was 61.9.
For CKNYWNPCDLIPGPC (linker 1-8-15 via TBMB) [06-254-02 (phage clone)], the “S:B (signal:background)” value was 46.6.
In the case of CKNYWNPCDLVMDTC (linker 1-8-15 via TBMB) [06-254-03 (phage clone)], the “S:B (signal:background)” value is reported as 56.7.
With CKNYWNPCDLIQDAC (linker 1-8-15 via TBMB) [06-254-F4] the “S:B (signal:background)” value was 46.4.
CKNYWNPCDLISIKC (linker 1-8-15 via TBMB) [06-254-B3] was tested, and the “S:B (signal:background)” value was 61.6.
With CKNYWNPCDLIPTGC (linker 1-8-15 via TBMB) [06-254-G3] the “S:B (signal:background)” value was 37.5.
CKNYWNPCDLVQIHC (linker 1-8-15 via TBMB) [06-254-H4] was tested, and the “S:B (signal:background)” value was 38.9.
In the case of CKNYWNPCDLIGITC (linker 1-8-15 via TBMB) [06-254-G2], the “S:B (signal:background)” value is reported as 46.3.
CKNYWNPCDLVDTFC (linker 1-8-15 via TBMB) [06-254-A4] was tested, and the “S:B (signal:background)” value was 32.4.
CKNYWNPCDLVEAQC (linker 1-8-15 via TBMB) [06-254-G4] was tested, and the “S:B (signal:background)” value was 33.1.
For CKNFWNPCDLIPISC (linker 1-8-15 via TBMB) [06-254-D3], the “S:B (signal:background)” value was 20.3.
In the case of CKNYWNPCDLIWTDC (linker 1-8-15 via TBMB) [06-254-E2], the “S:B (signal:background)” value is reported as 31.4.
With CKNYWNPCDLIPDLC (linker 1-8-15 via TBMB) [06-254-F5] the “S:B (signal:background)” value was 38.7.
CKNYWNPCDLLPDLC (linker 1-8-15 via TBMB) [06-254-B1] was tested, and the “S:B (signal:background)” value was 9.99.
With CKNYWNPCDLIPDMC (linker 1-8-15 via TBMB) [06-254-D6] the “S:B (signal:background)” value was 24.4.
With CKNYWNPCDLIADLC (linker 1-8-15 via TBMB) [06-254-H3] the “S:B (signal:background)” value was 25.2.
In the case of CKNYWNPCDLLESTC (linker 1-8-15 via TBMB) [06-254-E5], the “S:B (signal:background)” value is reported as 29.7.
CKNYWNPCDLIRPPC (linker 1-8-15 via TBMB) [06-254-D1] was tested, and the “S:B (signal:background)” value was 33.6.
With CKNYWNPCDLLGIAC (linker 1-8-15 via TBMB) [06-254-B9] the “S:B (signal:background)” value was 38.
In the case of CKNYWNPCDLVHDIC (linker 1-8-15 via TBMB) [06-254-E3], the “S:B (signal:background)” value is reported as 30.2.
CKNYWNPCDLLHVRC (linker 1-8-15 via TBMB) [06-254-A7] was tested, and the “S:B (signal:background)” value was 26.1.
In the case of CKNYWNPCDLIAPYC (linker 1-8-15 via TBMB) [06-254-C1], the “S:B (signal:background)” value is reported as 27.4.
In the case of CKNYWNPCGLVYSTC (linker 1-8-15 via TBMB) [06-254-E6], the “S:B (signal:background)” value is reported as 23.5.
In the case of CNTWNPWCGWVGGFC (linker 1-8-15 via TBMB, also called 06-259 (phage clone)) [06-259 (parent)], the “S:B (signal:background)” value is reported as 1.17.
With CNHWNPWCSVEPPVC (linker 1-8-15 via TBMB) [06-259-01 (phage clone)] the “S:B (signal:background)” value was 51.7.
With CNTWNPWCPWDAPLC (linker 1-8-15 via TBMB) [06-259-02 (phage clone)] the “S:B (signal:background)” value was 43.5.
For CNHWNPWCSADPPIC (linker 1-8-15 via TBMB) [06-259-03 (phage clone)], the “S:B (signal:background)” value was 49.8.
For CNHWNPWCSADPPRC (linker 1-8-15 via TBMB) [06-259-F1], the “S:B (signal:background)” value was 38.
CNHWNPWCPADIPVC (linker 1-8-15 via TBMB) [06-259-E2] was tested, and the “S:B (signal:background)” value was 37.7.
In the case of CNHWNPWCSDDPYIC (linker 1-8-15 via TBMB) [06-259-H3], the “S:B (signal:background)” value is reported as 38.7.
CNHWNPWCSSDPPVC (linker 1-8-15 via TBMB) [06-259-H4] was tested, and the “S:B (signal:background)” value was 33.6.
With CNYWNPWCSDTRIGC (linker 1-8-15 via TBMB) [06-259-A6] the “S:B (signal:background)” value was 22.6.
For CNTWNPWCSWPDIDC (linker 1-8-15 via TBMB) [06-259-F2], the “S:B (signal:background)” value was 22.7.
